Results from paper PMC5990521, “Structural basis of DUX4/IGH-driven transactivation”.

How the values were obtained:
Assay in all cases: BLI; BLI on Octet Red 96, biotin-DNA-DRE on SA sensors, protein 0.5-32 uM (HD2) or 0.25-16 uM (HD1-HD2); buffer, salt, pH and temperature not given in the material
DUX4 HD2 K97A = DUX4 HD2 K97A (human, UniProt Q9UBX2 94-153, K97A); settings: protein: recombinant; tags: N-terminal His-tag, removed with thrombin; blunt
DUX4 HD2 R95A = DUX4 HD2 R95A (human, UniProt Q9UBX2 94-153, R95A); settings: protein: recombinant; tags: N-terminal His-tag, removed with thrombin; blunt
DUX4 HD2 R95A, sequence (Q9UBX2 94-153 R95A): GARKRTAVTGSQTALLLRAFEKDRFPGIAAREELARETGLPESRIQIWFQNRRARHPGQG

DUX4 HD2 Q143E = DUX4 HD2 Q143E (human, UniProt Q9UBX2 94-153, Q143E); settings: protein: recombinant; tags: N-terminal His-tag, removed with thrombin; blunt
DUX4 HD2 Q143E, sequence (Q9UBX2 94-153 Q143E): as the sequence (Q9UBX2 94-153 R95A) above, with A2R, Q50E counted along it

DUX4 HD1-HD2 = DUX4 HD1-HD2 (human, UniProt Q9UBX2 19-153); settings: protein: recombinant; blunt
DUX4 HD1-HD2, sequence (Q9UBX2 19-153): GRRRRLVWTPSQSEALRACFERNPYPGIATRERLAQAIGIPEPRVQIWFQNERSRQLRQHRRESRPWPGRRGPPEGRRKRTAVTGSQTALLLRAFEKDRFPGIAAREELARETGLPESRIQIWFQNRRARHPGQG

DUX4 HD2 R98A = DUX4 HD2 R98A (human, UniProt Q9UBX2 94-153, R98A); settings: protein: recombinant; tags: N-terminal His-tag, removed with thrombin; blunt
DUX4 HD2 R98A, sequence (Q9UBX2 94-153 R98A): as the sequence (Q9UBX2 94-153 R95A) above, with A2R, R5A counted along it

DUX4 HD2 R96A = DUX4 HD2 R96A (human, UniProt Q9UBX2 94-153, R96A); settings: protein: recombinant; tags: N-terminal His-tag, removed with thrombin; blunt
DUX4 HD2 R96A, sequence (Q9UBX2 94-153 R96A): as the sequence (Q9UBX2 94-153 R95A) above, with A2R, R3A counted along it

DUX4 HD2 R148E = DUX4 HD2 R148E (human, UniProt Q9UBX2 94-153, R148E); settings: protein: recombinant; tags: N-terminal His-tag, removed with thrombin; blunt
DUX4 HD2 R148E, sequence (Q9UBX2 94-153 R148E): as the sequence (Q9UBX2 94-153 R95A) above, with A2R, R55E counted along it

DUX4 HD2 N144E = DUX4 HD2 N144E (human, UniProt Q9UBX2 94-153, N144E); settings: protein: recombinant; tags: N-terminal His-tag, removed with thrombin; blunt
DUX4 HD2 N144E, sequence (Q9UBX2 94-153 N144E): as the sequence (Q9UBX2 94-153 R95A) above, with A2R, N51E counted along it

DUX4 HD2 K97A, sequence (Q9UBX2 94-153 K97A): as the sequence (Q9UBX2 94-153 R95A) above, with A2R, K4A counted along it

B1: biotin-DNA-DRE (BLI) (dsDNA)
DNA 1: TTCTAATCTAATCA
DNA 2: TGATTAGATTAGAA
modifications: biotin
With B1 the binding result (DUX4 HD2 K97A) was “no binding”, the binding result (DUX4 HD2 R95A) was “no binding” and the Kd (DUX4 HD2 Q143E) was 31 µM. For the same binder, the Kd (DUX4 HD1-HD2) was 1.4 µM, the binding result (DUX4 HD2 R98A) was “no binding” and the binding result (DUX4 HD2 R96A) was “no binding”. The Kd (DUX4 HD2 R148E) was 67 µM and the Kd (DUX4 HD2 N144E) was 55 µM.
